The source of these data is patent publication US20180022816A1 (Genmab, published 2018).

Sequences and labels used below:
B1: HuMab 106 (antibody, V domains shown)
VH: EVQLVQSGAEVKKPGESLKISCKGSGYSFTRYWIGWVRQMPGKGLEWMGIIYPGDSDTRYSPSFQGQVTISADKSISTAYLQWSSLKASDTAMYYCARLTGDRGFDYYSGMDVWGQGTTVTVSS
VL: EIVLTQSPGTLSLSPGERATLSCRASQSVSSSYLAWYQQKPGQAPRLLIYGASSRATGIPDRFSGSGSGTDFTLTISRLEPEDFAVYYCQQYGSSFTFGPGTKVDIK
B2: HuMab 005 (antibody, human IgG1, V domains shown)
VH: EVQLVQSGAEVKKPGESLKISCKASGYSFHFYWIGWVRQMPGKGLEWMGSIYPGDSDTRYRPSFQGQVTISADKSISTAYLQWTSLKASDTAIYYCARQRGDYYYFYGMDVWGQGTTVTVSS
VL: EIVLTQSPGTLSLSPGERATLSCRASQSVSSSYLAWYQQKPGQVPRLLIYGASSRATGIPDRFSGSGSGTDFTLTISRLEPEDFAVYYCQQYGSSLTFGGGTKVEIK
B3: HuMab 060 (antibody, V domains shown)
VH: EVQLVQSGAEVKKPGESLKISCKGSGYRFTSYWIGWVRQMPGKGLEWMGSIYPGDSYTRNSPSFQGQVTISADKSIATAYLQWNSLKASDTAMYYCARHAGDFYYFDGLDVWGQGTTVTVSS
VL: not shown
B4: HuMab 111 (antibody, V domains shown)
VH: QVQLVQSGAEVKKPGSSVKVSCKASGGTFSSYGISWVRQAPGPGLEWMGRIIPILGIANYAQKFQGRVTITADKSTNTAYMELSSLRSEDTAVYYCARDQEYSSNWYYWGQGTLVTVSS
VL: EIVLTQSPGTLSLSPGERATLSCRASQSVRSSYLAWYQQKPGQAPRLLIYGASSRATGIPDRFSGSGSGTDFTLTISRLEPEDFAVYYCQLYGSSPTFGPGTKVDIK
B5: HuMab 059 (antibody, V domains shown)
VH: QVQLVQSGAEVKKPGASVRVPCKASGYTFTRYGISWVRQAPGQGLEWMGWISAYNGKTYYAQKLQGRVTMTTDTSTSTAYMELRSLRSDDTAVYYCARSPLLWFEELYFDYWGQGTLVTVSS
VL: EIVLTQSPGTLSLSPGERATLSCRASQSVSSTYLAWYQQKPGQAPRLLIYGASSRATGIPDRFSGSGSGTDFTLTISRLEPEDFAVYYCQQYGTSLFTFGPGTKVDIK

The target of one experiment is T1, human epidermal growth factor receptor 2 (HER2), membrane-bound on tumor cells (AU565, A431, SK-BR-3) (human, UniProt P04626 23-1255). Description: cell-based or functional assay.
With B1, the “% cells killed, AU565 cells, anti-kappa-ETA′-conjugated antibody” value (from here on “% cells killed, AU565 cells”) worked out at 59.1% and the “EC50 of killing, AU565 cells, anti-kappa-ETA′-conjugated antibody” value (from here on “EC50 of killing, AU565 cells”) worked out at 108 ng/mL.

For B2, the “% cells killed, AU565 cells” value turned out to be 69.7% and the “EC50 of killing, AU565 cells” value stood at 15.1 ng/mL.

As to B3, the “% cells killed, AU565 cells” value was found to be 64.3% and the “EC50 of killing, AU565 cells” value was determined as 79.4 ng/mL.

For B4, the “% cells killed, AU565 cells” value came out at 72% and the “EC50 of killing, AU565 cells” value is 24.2 ng/mL.

Regarding B5, the “% cells killed, AU565 cells” value stood at 67% and the “EC50 of killing, AU565 cells” value stood at 67.7 ng/mL.

The target in another experiment is T1, human epidermal growth factor receptor …. The experiment is described as follows: cell-based or functional assay. The source holds these as a separate data set.
With B2, the “EC50 of killing, A431 cells, anti-kappa-ETA′-conjugated antibody” value is around 10.1 ng/mL.

With B3, the “EC50 of killing, A431 cells, anti-kappa-ETA′-conjugated antibody” value was around 10 ng/mL.

The target is the same in the next experiment. The experiment is described as follows: cell-based or functional assay. The source holds these as a separate data set.
Take B1: the “EC50, fab-CypHer5E internalization assay, AU565 cells” value is 68.6 ng/mL and the “Maximal MFI, fab-CypHer5E internalization assay, AU565 cells” value (shortened to “Maximal MFI”) is 57400 MFI.

Regarding B2, the “EC50, fab-CypHer5E internalization assay, AU565 cells” value turned out to be 21.4 ng/mL and the “Maximal MFI” value is 95100 MFI.

B3: the “EC50, fab-CypHer5E internalization assay, AU565 cells” value worked out at 36.2 ng/mL and the “Maximal MFI” value was determined as 68200 MFI.

For B4, the “EC50, fab-CypHer5E internalization assay, AU565 cells” value came to 35.2 ng/mL and the “Maximal MFI” value was found to be 81700 MFI.

Turning to B5, the “EC50, fab-CypHer5E internalization assay, AU565 cells” value stood at 14.8 ng/mL and the “Maximal MFI” value worked out at 77100 MFI.
